# Measurements from PMC12819141, “RNase MRP subunit composition and role in 40S ribosome biogenesis” (Nature Structural & Molecular Biology, 2025).
# T1: RPP29 (coexpressed with RMP24 in bacteria) (human, UniProt O95707 1-220)
# T1 construct: RPP29 (POP4), human; codon-optimized bicistronic cassette with C18orf21/RMP24 in pGEX-6P-1; The pGEX-6P-1 vector adds GST to one of the two chains; Elution was by PreScission protease or by reduced glutathione; also called POP4; source: E. coli BL21-DE3, coexpressed with RMP24, purified (Glutathione-Agarose, S200 increase)
# T1 sequence: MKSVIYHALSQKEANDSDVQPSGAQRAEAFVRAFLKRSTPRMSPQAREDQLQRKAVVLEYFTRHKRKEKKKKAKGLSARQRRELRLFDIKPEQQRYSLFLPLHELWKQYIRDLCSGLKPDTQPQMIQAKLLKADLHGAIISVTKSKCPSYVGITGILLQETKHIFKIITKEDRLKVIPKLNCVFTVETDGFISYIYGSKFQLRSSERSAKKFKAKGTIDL
# B1: RMP24 (coexpressed with RPP29 in bacteria) (natural protein, human, UniProt Q32NC0 1-220, looked up)
# chain: MRQKHYLEAAARGLHDSCPGQARYLLWAYTSSHDDKSTFEETCPYCFQLLVLDNSRVRLKPKARLTPKIQKLLNREARNYTLSFKEAKMVKKFKDSKSVLLITCKTCNRTVKHHGKSRSFVSTLKSNPATPTSKLSLKTPERRTANPNHDMSGSKGKSPASVFRTPTSGQSVSTCSSKNTSKTKKHFSQLKMLLSQNESQKIPKVDFRNFLSSLKGGLLK
# notes: C18orf21 (RMP24), human; codon-optimized bicistronic cassette with RPP29 in pGEX-6P-1; The pGEX-6P-1 vector adds GST to one of the two chains; also called C18orf21; full-length RMP24; source: E. coli BL21-DE3, coexpressed with RPP29, purified (Glutathione-Agarose, S200 increase)
# Molecular target: T1, RPP29 (coexpressed with RMP24 in …)
# Assay: SEC; RMP24 and RPP29 coexpressed in E. coli, isolated on Glutathione-Agarose, then passed over a Superdex S200 increase 10/300 GL column in 25 mM Tris HCl pH 8, 100 mM NaCl, 1 mM DTT; peak fractions on Coomassie-stained SDS–PAGE and LC–MS
# Conditions: both partners purified
binder,measurement,value
B1,binding result,binds
